In publication PMC10902351 one finds phosphate (Pi) release after inducing polymerization of 12 µM TgAct1, MESG assay, 1-hour time course (phosphates per TgAct1 in 1 hour) and fold change of the critical concentration with 0.1 mM AMPPNP against MgATP conditions data, which are given here for one substance.

Assay [1] concerns the target Toxoplasma gondii actin (TgAct1), untagged (Toxoplasma gondii) (UniProt P53476).
The target is the same in assay [2]. Briefly: epifluorescence microscopy of single filament growth (in vitro actin growth assay); actin growth assay with inclusion of 0.1 mM AMPPNP, compared to MgATP conditions.

With “Toxoplasma gondii actin (TgAct1), untagged (from UniProt P53476 1-376) (natural protein)”, the phosphate (Pi) release after inducing polymerization of 12 µM TgAct1, MESG assay, 1-hour time course (phosphates per TgAct1 in 1 hour) in assay [1] was 3. Also, the fold change of the critical concentration with 0.1 mM AMPPNP against MgATP conditions in assay [2] stood at 2 fold.
